Here are results for one molecule from patent US20180296689A1 (published 2018).

For orientation: Kd means the constant that tells how readily two partners part at equilibrium.

Assay [1] has as its target T1, TROP-2 (EGP-1), human, on tumor cell lines (human, UniProt P09758 27-323).
T1 construct: whole, on cells; 36-kDa cell-surface glycoprotein; also called epithelial glycoprotein-1
T1 sequence (looked up): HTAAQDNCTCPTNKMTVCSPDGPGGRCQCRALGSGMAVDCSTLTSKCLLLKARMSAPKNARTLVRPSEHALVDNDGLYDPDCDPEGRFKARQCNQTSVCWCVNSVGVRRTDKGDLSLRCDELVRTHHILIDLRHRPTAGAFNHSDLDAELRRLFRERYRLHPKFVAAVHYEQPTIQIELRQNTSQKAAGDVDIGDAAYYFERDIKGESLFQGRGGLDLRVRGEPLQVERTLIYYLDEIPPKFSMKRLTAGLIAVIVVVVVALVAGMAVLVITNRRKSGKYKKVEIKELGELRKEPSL
The assay can be described thus: cell binding on TROP-2-positive PC-3 human prostate carcinoma cells, three separate occasions.

The target in assay [2] is Human neonatal receptor (FcRn) (human, UniProt P55899 24-297, limits assumed). The assay is described as follows: SPR (BIACore), low density FcRn biosensor chip, three runs of five dilutions. (In SPR one partner is held on a chip, and binding of the other changes the refractive index at the surface.)
Chain of Human neonatal receptor (FcRn) (P55899 24-297 limits assumed): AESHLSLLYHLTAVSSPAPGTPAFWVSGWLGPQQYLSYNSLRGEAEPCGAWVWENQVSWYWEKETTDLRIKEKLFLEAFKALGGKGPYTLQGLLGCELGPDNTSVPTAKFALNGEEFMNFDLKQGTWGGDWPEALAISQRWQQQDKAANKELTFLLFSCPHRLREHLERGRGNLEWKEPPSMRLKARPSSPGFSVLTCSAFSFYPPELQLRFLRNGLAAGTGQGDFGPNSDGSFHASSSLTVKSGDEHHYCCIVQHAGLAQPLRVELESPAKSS

B1: hRS7 IgG (humanized anti-TROP-2 IgG1 monoclonal antibody, unconjugated) (antibody)
chain 1: not shown
chain 2: DIQLTQSPSSLSASVGDRVSITCKASQDVSIAVAWYQQKPGKAPKLLIYSASYRYTGVPDRFSGSGSGTDFTLTISSLQPEDFAVYYCQQHYITPLTFGAGTKVEIKRTVAAPSVFIFPPSDEQLKSGTASVVCLLNNFYPREAKVQWKVDNALQSGNSQESVTEQDSKDSTYSLSSTLTLSKADYEKHKVYACEVTHQGLSSPVTKSFNRGEC
Consider B1, for which the dissociation constant (Kd) in assay [1] came out at 0.564 nM; in assay [2], 192 nM.
